Reference: PMC2858642
pKd: −log10 of the molar value.

Molecular target: His6-Bcl-2ΔTM G154A/G155A mutant
Test: fluorescence polarisation

## His6-Bcl-2ΔTM G154A/G155A mutant (domain or fragment)
  pKd: 7.52
